Assay results as given in patent publication US20210403591A1.
Positions count from the first letter of the chain named. Values belong to the binder of their own block, whether it stands above or below them.

What was measured:
[1] = biological target: mTfR-1 N253A on Expi293 cells (mouse) (UniProt Q62351); experiment: FACS, transfected Expi293 cells
[2] = biological target: mTfR-1 S255A on Expi293 cells (mouse) (UniProt Q62351); experiment: FACS, transfected Expi293 cells
[3] = biological target: mTfR-1 L256A on Expi293 cells (mouse) (UniProt Q62351); experiment: FACS, transfected Expi293 cells; mutant poorly expressed
Chain of mTfR-1 L256A on Expi293 cells (mouse) (Q62351 whole entry L256A): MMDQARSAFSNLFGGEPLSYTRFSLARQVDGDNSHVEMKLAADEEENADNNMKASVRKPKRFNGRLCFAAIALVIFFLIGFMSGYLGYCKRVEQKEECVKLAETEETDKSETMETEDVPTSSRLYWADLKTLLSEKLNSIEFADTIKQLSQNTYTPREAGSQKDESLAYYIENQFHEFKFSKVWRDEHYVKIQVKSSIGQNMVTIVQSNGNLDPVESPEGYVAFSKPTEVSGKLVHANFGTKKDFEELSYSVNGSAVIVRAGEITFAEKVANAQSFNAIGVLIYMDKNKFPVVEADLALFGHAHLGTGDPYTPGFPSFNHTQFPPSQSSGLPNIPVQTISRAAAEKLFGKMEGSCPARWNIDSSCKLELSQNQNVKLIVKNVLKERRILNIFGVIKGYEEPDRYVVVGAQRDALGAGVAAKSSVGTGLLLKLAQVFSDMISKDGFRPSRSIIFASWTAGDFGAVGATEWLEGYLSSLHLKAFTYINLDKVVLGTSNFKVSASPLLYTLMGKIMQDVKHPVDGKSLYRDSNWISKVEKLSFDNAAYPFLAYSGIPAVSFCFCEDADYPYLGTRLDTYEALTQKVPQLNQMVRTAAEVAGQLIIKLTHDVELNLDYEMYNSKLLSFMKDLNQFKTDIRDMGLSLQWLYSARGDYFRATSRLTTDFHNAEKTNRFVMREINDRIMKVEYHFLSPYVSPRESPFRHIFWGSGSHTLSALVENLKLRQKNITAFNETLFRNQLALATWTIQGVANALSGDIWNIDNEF

Chain of mTfR-1 N253A on Expi293 cells (mouse) (Q62351 whole entry N253A): as the sequence (Q62351 whole entry L256A) above, with N253A, A256L counted along it
Chain of mTfR-1 S255A on Expi293 cells (mouse) (Q62351 whole entry S255A): as the sequence (Q62351 whole entry L256A) above, with S255A, A256L counted along it

- % double-positive cells vs WT [1]: 27%
- % double-positive cells vs WT [2]: 19%
B1: Clone C variant 13 VNAR-hFc (Fc fusion, not shown: a dimerising Fc or GST)
chain: ARVDQTPQTITKETGESLTINCVLRDSNCALSSTYWYRKKSGSTNEENISKGGRYVETVNSGSKSFSLRINDLTVEDSGTYRCNVVQYPQQDNYFWCDVYGDGTAVTVN

- % double-positive cells vs WT [3]: 1%
B2: Clone C VNAR-hFc fusion (Fc fusion, not shown: a dimerising Fc or GST)
chain: B1 chain with Q90S, Q91Y, D92N
